Test results as given in a protein production outcome set (Wang et al. 2014).

Test: label from the status in PepcDB records
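Also: failed if final PepcDB status was selected cloned or expressed and not failed if soluble or beyond.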

Sequence	protein production
MSSLVQSVDWLAIAPPTLAAVVGLVVLVADLFIGDHKKALLGWVSVAGLAASALLLLPLLDGDRATFCLTGDANTCSYTADHFTLAIQFLVLGGALLAALLSVTALKDADREIPEGEFWFLLLSSAAGAALLPASRDLATLIVALEVASLPAFALVGIKRGDKKSSEAALKFFLSSVTATAVSLMGVSFVYASTGTLYLTEIARKIQHVDGQLHTLAQTGVVLTLVGFAFKTAAVPFHFWVPDTYVGAPLPIAAYLSVVGKAVGFSGLILVTVVAFPSYADVWGPALAALAALTMTVGNVGALRQQATRAYSAVRLLAWSSVGQAGYLLVPIAAAAYSKDAEKAIGSTVAYALMYAAVNLGAFAVAALVGRTKVLNRVSDYRGLYASNPLAALLLGFFLLCLAGLPPGIIGLFAKVTVFSAAVDAGLGWLAVVMAVNVVIALFYYLQWTTLLFRAPEGEPEKHRVPAPLTAAIALTAVLGVALSGAPQLVLRFSDTGLF	failed
MTDARPHLRLRLARPEDMPALSALMDRAIGELLQDFLPPEGVKASYEIMGLDTQLIADGTYFVVEDGAAIAGCGGWSRRATLFGGDHSAGRDAALLDPKTDAARVRAMYTHPDHTRKGVGRIILDACEAAARAEGFSSVEMAATMGGVPLYRACGYHDIEPFEAVTSTGYRVPLIRMGKAL	failed
MANLLSTCTSESGNIQHISPQNAGWEYVGFDVWQLKAGESITLPSDERERCLVLVAGLASVKAADSFFYRIGQRMSPFERIPAYSVYLPHHTEAKVTAETDLELAVCSAPGFGELPVRLISPQEVGVEHRGKGRNQRLVHNILPDSQLADSLLVVEVYTNAGATSSWPAHKHDTAVEGQETYLEETYYHRFNPPQGFCLQRVYTDDRSLDECMAVYNRDVVKVPKGYHPVATIAGYDNYYLNVMAGPLRKWRFTWEENHAWINSPDYPR	not failed
MNSRAADQLELDGLPGTPPDFYRERQRSRVERYQSPAGAPLQCSVQVQTTQEHPLWTSHVWSGARALADTLCWQPELIAGKTVCELGAGAGLVSIVAFLAGADQVVATDYPDPEILNSLESNIREHTANSCSSETVKRASPKVVPYRWGDSPDSLQRCTGLQRFQVVLLADLLSFHQAHDALLRSVKMLLALPANDPTAVALVTFTHHRPHLAERDLAFFRLVNADGALIAEPWLSPLQMDPMFPDDPGDVCIRGQVHRWRLRWRSAASASANIPAHARNE	not failed
MRNTFIVCWQYLRAFALIYLCLLAGNAVSALLPFTIPGSIIGMLVLFTLLASQILPAQWVKPGCYLLIRHMALLFVPIGVGVMNYYDLVNQQFGPIVVSCLISTFIVMLVVGFSTQIMQRERATAGDRTPPKDNE	failed
MKWTTANTKHVNYTAKHELYVGTHTGSFKHLVPASEKTPYGQSNLSDLCALDKDSRVTSLAFGNDDQTEILLGRAKDAVEIHSFTEKGHSRNTVSFNAAPIVGLARYNDKLIAGIGNGEIQSLELEANDESEPVVIATGDQMDHLRQCAQVKSIVATGGKERQNNLKVYDLNADGKQIFTSKNLPNDYLQLEVPVWDSDIGFVDGPSVLATCSRTGYVRIYDTRKQRRPVACFASEEHGMSFTTLVAKGNFIYTGTTMGALKAFDTRRMKTHVHTYKGFTGGISDLHLDATGRFLSSASLDRYVRIHDSETTVLLYQCYVKSKATKILIRPFENEARVTEEPEEVADLQMDRNVSENKSVNATSVDNEYEDMFDQMPTVGDSDNESEEEMSNIKLSKADLKRRSSEKSLKNKKKKVVIS	failed
GEVVLKMKVEGMTCHSCTSTIEGKIGKLQGVQRIKVSLDNQEATIVYQPHLISVEEMKKQIEAMGFPAFVKKIEGR	not failed
AQKLSATSRILSSSRGPAPDDIADFFGTDRAAQHITLRRLRLGNGRPYAIDNGWYNSEFAPDLLENDVYNSVYSILDRVYGVPVTQAEQTVTAVAADEDTARLLDVTPGAPLLRILRQSLSGDKPVEWCVSLYRTDRYSLKTLVTRSEDL	not failed
MAHYKAADSKREQFRRYLEKSGVLDTLTKVLVALYEEPEKPNSALDFLKHHLGAATPENPEIELLRLELAEMKEKYEAIVEENKKLKAKLAQYEPPQEEKRAE	not failed
MKKIEIFDPAMCCSTGVCGPSVDPELIRISVAVNNLKNKGIDVTRYNLASEPDAFANNGVISQLLTDKGPDVLPVTLVDGKVVKEKSHLTNEELTQLTDITEEELSQKPVVRLKLNVKK	not failed
MYEPPNQFHCLDADVWIEIPNRVIGVTGNCYVGRDYIPKNGKTRYDVKVFVKKIKKEQENPDTLIKDNDLELSKSKSDDIGTLIEKGVNLRNFKKYDEALQIFEKVTELEPSNAQAWHNKGIILGILKKYNEARQAFEKAMEIEPGKNRRDCSSRHLRSARNRTSERNQGSNVEQ	failed
MYQAVVFFDLDGTLMQDDKTVAASSVRAIQQLRANHVLPVIATGRNVFEVQDVMTTTGIDSIVSANGSYVAYQGQFLSAHELDKELLTDITHFANRQQNALAYYNNAGFALSHRDALTTSNYRALRQTARVAPHFYEHQHINFLLTFDPLNAAQYRQRYRGRLHFVRNNPRALDTMQWGVSKAVGIQDILTKAHLTKVPTYAFGDQLNDIEMFRMIQTPIAMGNGHPQVKQLARYVTADNMHGGIAQGLQHFDLI	failed
MKSRIIVRTSFDAAHAVKVGDHWEDVHGHTFFLEVAIEGEIKNGYVMDFLELRKIVEEITKELDHRNLNNIFENPTTENIALWIGERIRDKLPPYVKLKRVVLWEGKDNGVELEW	not failed
MTLLQQIMWGSLYLGLCFVVEVLLLVWCTLVIVHLSIRLRHLSRAMRTAAVISVSLAFIVLAHTLQVWLWAGVWIWSDVLTDWNEALYFSLVTYTTLGYGDIVLGPGLRIFAAFAAVAGLLAFGLSTAYLVALMSRVFEGRLPR	failed
MARYHIETYGCTSNRGESRDIERRLRDAGHHKVETAADADVAILNTCTVVEKTERNMLRRAKELADETADLIVTGCMALAQGEAFADADVDAQVLHWDDVPEAVTNGECPTTTPDAEPILDGVVGILPIARGCMSNCSYCITKQATGRVDSPPVEENVEKARALVHAGAKEIRITGQDTGVYGWDTGERKLPELLERIATEIEGEFRVRVGMANPGGVHGIREELAAVFAEHDEIYNFLHAPVQSGSDDVLADMRRQHEVSQYRDIVETFNDTLGEWTLSTDFIVGFPTEDDDDHEASMDLLRETRPEKINVTRFSKRPGTDAAELKGLGGQTKKDRSKAMTELKMDVVGEAHESMVGTRRDVLVVEEGTGDSVKCYDGAYRQVIVQNATDHGLEPGDFATVEVTSHQTVYAFAEPVDAAAVDDGPAETTAD	failed
MLVPLPVREIMRTPVKTISPSAPVIEAAQRLRDEDIGSLVVEDDGSCVGIITESDIVAVTAAEGDTRALSVGDVMAETLVTVAPDADMQAAVDRLQTNNIKKLPVVEDGSLVGIVTTTDLSDYIPHLSRAVRMSNDQSQQKRFTRPDTLYENEDWTFESYGTADGIDVGDHVEFSKTISKADVEAFAEASGDTNRLHLDATFADGTRFGRRIVHGTLVSGIISAALARLPGLTIYLSQELSYQGPVDIDEEVTARCEVVERIQDNRFRLATAVDDSEGNCVIEGDAVVISDPIPDTA	failed
MGLRALSASVNAFECEKQHGDPKSMRINSVPGGRPPRDGRPSRAGALFGCSSAEALYFGSECRPGPSARRFGDNRAHSSLTYWCGMNTFDFGFDDSEDSPHEDPLEDLVAAYENDPSAYFDSGDLEEIASFYFEEGEMETALEVIDRLIELHPYTSDAWMRRGILLNNLGRPEEALEAYEQALDVNPTDTETLINLGITLDSLGRVDEALEAYDEALSINPLHGEALFNLGVTLERDEQLEAAVEAFQRCADVYPEHPEVWYELGYCYDRLGEDEKSVEAYDNHLDIDPYSKDAWYNRGIVLNRLGRFGEAVESYDMALAIHDEFASAYYNRGNAEANQGDLEAAVESYERVLELEGPDAATYYNLALAYEEQGDLRAARTYYEKTLDLKSNYPEAWYGLGCCFDTDERPEEALECFRYAVNLDANVPKFWTARADCAYKVGKLDEALESYQHAVRLDESNEHAWTGYAETLLEKEQPEEALEAYRQALELDPKSANTYFRQAKALLALGRADESIRALKTAFRLDPAKKEEFQKAYPTLYDNDRVRRLLDLDS	failed
MKTDTEWLLCDFHVHTNMSDGHLPLGEVVDLFGKHGVDVVSITDHIVDRRTLEQRKRNGEPLGAITEDKFQDYLKRLWREQKRAWEEYGMILIPGVEITNNTDLYHIVAVDVKEYVDPSLPVEEIVEKLKEQNALVIAAHPDRKKQDEEHLSWYLWANMERFKDTFDAWEIANRDDLFNSVGVKKYRYVANSDFHELWHVYSWKTLVKSEKNIEAIKEAIRKNTDVAIYLMRKNRLSSLSDVI	not failed
